Source: PMC5861439 (Nucleic Acids Research, 2017)

Key:
Rtt109 = conditions: ref [13–14],[21–22]; cited from earlier work
[1] = system: 15N-labeled H3 in the H3:H4 complex; test: NMR 15N-HSQC CSPs of 15N-labeled histone H3 in the H3:H4 complex; assay type: binding, Xenopus laevis; conditions: Rtt109 added to Asf1–H3:H4 (15N-labeled H3); 50 mM sodium citrate pH 6.2, 150 mM NaCl, 5 mM BME, 600 MHz, 298 K
Asf1–H3:H4 complex = test: NMR 13C-HMQC; assay type: binding, Asf1 Saccharomyces cerevisiae; histones Xenopus laevis; conditions: Rtt109 added to Asf1–H3:H4–Vps75_2; 50 mM sodium citrate pH 6.5, 150 mM NaCl, 5 mM BME, 850 MHz, 298 K

Row | Substance | acetyltransferase activity alone / activation of Rtt109 by chaperones (in words) (Rtt109) | competition with the H3 tail for Asf1 (in words) [1] | Asf1 CSPs upon addition of Rtt109 in the presence of Vps75 (in words) (Asf1–H3:H4 complex)
1 | Asf1: Saccharomyces cerevisiae Asf1 (2–169), histone-specific chaperone | strongly activated |  | 
2 | Rtt109: full-length Saccharomyces cerevisiae Rtt109, fungal histone acetyltransferase | very low acetyltransferase activity | can out-compete the H3 tail for the same interaction surface on Asf1 | large Asf1 CSPs
3 | Vps75_2: Vps75 homodimer, histone chaperone (Saccharomyces cerevisiae) | strongly activated |  | 
